Measured values published in US20250026850A1 (TRISHULA THERAPEUTICS, published 2025).

T1: rhCD39-ECD-His (R&D Systems) (human, UniProt P49961 38-478)
T1 construct: Bought protein; that entry runs on through the C-terminal transmembrane and cytoplasmic residues; also called recombinant human CD39 extracellular domain; soluble recombinant human CD39 (ENTDP1) ECD; not shown: His tag
T1 sequence: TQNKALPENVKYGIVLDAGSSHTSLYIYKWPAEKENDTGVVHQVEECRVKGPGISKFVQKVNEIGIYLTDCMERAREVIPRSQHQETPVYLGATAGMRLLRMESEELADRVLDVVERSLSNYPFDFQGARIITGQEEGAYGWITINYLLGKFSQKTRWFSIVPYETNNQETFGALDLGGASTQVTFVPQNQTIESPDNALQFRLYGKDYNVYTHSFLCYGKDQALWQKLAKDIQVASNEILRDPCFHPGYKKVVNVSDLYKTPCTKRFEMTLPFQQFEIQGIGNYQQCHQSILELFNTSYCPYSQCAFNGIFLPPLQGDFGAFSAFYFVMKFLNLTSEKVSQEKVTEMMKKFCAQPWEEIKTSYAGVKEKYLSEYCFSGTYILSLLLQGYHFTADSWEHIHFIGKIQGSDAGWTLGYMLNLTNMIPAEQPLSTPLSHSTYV

T2: human CD39 on cells (human, UniProt P49961 1-510)
T2 construct: One molecule for all cells that carry human CD39; the cell is named under assay; also called hCD39; cellular CD39
T2 sequence: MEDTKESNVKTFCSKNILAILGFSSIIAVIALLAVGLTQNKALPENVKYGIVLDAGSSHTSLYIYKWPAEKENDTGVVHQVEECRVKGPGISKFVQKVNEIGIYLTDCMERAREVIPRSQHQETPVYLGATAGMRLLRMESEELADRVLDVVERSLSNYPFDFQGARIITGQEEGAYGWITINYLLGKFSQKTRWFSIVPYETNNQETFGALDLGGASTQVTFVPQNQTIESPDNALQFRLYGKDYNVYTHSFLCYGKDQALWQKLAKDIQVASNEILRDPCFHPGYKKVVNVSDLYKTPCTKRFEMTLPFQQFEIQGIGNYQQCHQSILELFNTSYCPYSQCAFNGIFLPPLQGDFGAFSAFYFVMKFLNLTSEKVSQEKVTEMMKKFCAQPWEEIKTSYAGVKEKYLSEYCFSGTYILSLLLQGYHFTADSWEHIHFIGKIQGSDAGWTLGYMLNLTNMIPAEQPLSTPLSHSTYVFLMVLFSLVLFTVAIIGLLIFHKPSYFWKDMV

T3: cynomolgus macaque (Macaca fascicularis) CD39 on cells (cynomolgus macaque (Macaca fascicularis), UniProt P49961 7-510 (human entry))
T3 construct: CHO cells engineered to express cyno CD39, or primary cyno B cells and monocytes; also called cyno CD39; cCD39
T3 chain: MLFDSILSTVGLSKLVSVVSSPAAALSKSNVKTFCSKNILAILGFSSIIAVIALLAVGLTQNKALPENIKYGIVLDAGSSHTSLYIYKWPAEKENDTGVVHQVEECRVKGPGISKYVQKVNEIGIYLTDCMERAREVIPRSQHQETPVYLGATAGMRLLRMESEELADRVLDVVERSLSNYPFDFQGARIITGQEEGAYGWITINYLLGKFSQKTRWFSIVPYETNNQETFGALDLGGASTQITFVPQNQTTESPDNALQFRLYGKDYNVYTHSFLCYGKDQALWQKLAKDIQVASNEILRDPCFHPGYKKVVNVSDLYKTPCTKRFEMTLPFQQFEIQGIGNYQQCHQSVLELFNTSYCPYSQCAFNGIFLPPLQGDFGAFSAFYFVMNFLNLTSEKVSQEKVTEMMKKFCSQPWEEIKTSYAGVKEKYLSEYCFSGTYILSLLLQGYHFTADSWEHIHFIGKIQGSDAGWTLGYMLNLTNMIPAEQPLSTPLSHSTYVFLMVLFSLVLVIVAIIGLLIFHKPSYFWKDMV

B1: 27568 (antibody, V domains shown)
VH: QVQLVQSGAEVKKPGSSVKVPCKASGGTFSSYAISWVRQAPEQGLEWMGSIIPIFGTANYAQKFQGRVTITADESTSTAYMELSSLRSEDTAVYYCAGESGGYRDHKLDVWGQGTVVTVSS
VL: EIVLTQSPATLSLSPGERATLSCRASQSVSSYLAWYQQKPGQAPRLLIYDASNRATGIPARFSGSGSGTDFTLTISSLEPEDFAVYYCQQSVFWPITFGGGTKVEIKR
B2: 27535 (antibody, V domains shown)
VH: QVQLVQSGAEVKKPGSSVKVSCKASGGTFSSYAISWVRQAPGQGLEWMGGIIPIFGTANYAQKFQGRVTITADESTSTAYMELSSLRSEDTAVYYCARDTPRWRYHYFDYWGQGTLVTVSS
VL: EIVLTQSPATLSLSPGERATLSCRASQSVSSYLAWYQQKPGQAPRLLIYDASKRATGIPARFSGSGSGTDFTLTISSLEPEDFAVYYCQQVLNYPLTFGGGTKVEIKR
B3: 27579 (antibody, V domains shown)
VH: QVQLVQSGAEVKEPGASVKVSCKAPGYTFTSYYMHWVRQAPGQGLEWMGVINPSGGSTSYAQKFQGRVTMTRDTSTSTVYMELSSLRSEDTAVYYCARGKREGGTEYLRHWGQGTLVTVSS
VL: EIVLTQSPGTLSLSPGERATLSCRASQSVSSSYLAWYQQKPGQAPRLLIYGASSRATGIPDRFSGSGSGTDFTLTISRLEPEDFAVYYCQQYHSYITFGGGTKVEIK
B4: 31414 (antibody, human IgG4 S228P, kappa, V domains shown)
VH: QVQLVQSGAEVKKPGASVKVSCKASGYTFKSYEMHWVRQAPGQGLEWMGRINPSVGSTWYAQKFQGRVTMTRDTSTSTVYMELSSLRSEDTAVYYCARGKREGGTEYLRNWGQGTLVTVSS
VL: EIVLTQSPGTLSLSPGERATLSCRASQSVSSSYLAWYQQKPGQAPRLLIYGASSRATGIPDRFSGSGSGTDFTLTISRLEPEDFAVYYCQQYHSYITFGGGTKVEIKR
B5: 31418 (antibody, V domains shown)
VH: QVQLVQSGAEVKKPGASVKVSCKASGYTFKSYEMHWVRQAPGQGLEWMGRINPSGGSTWYAQKFQGRVTMTRDTSTSTVYMELSSLRSEDTAVYYCARGKREGGTEYLRHWGQGTLVTVSS
VL: EIVLTQSPGTLSLSPGERATLSCRASQSVSSSYLAWYQQKPGQAPRLLIYGASSRATGIPDRFSGSGSGTDFTLTISRLEPEDFAVYYCQQYYFYITFGGGTKVEIKR
B6: 31415 (antibody, V domains shown)
VH: QVQLVQSGAEVKKPGASVKVSCKASGYTFTSYQMHWVRQAPGQGLEWMGRINPSGGSTWYAQKFQGRVTMTRDTSTSTVYMELSSLRSEDTAVYYCARGKREGGTEYLRSWGQGTLVTVSS
VL: EIVLTQSPGTLSLSPGERATLSCRASQSVSSSYLAWYQQKPGQAPRLLIYGASSRATGIPDRFSGSGSGTDFTLTISRLEPEDFAVYYCQQYHSYITFGGGTKVEIKR
B7: 31429 (antibody, V domains shown)
VH: QVQLVQSGAEVKKPGASVKVSCKASGYTFVSYFMHWVRQAPGQGLEWMGSINPRGGSTSYAQKFQGRVTMTRDTSTSTVYMELSSLRSEDTAVYYCARGKREGGTEYLRHWGQGTLVTVSS
VL: EIVLTQSPGTLSLSPGERATLSCRASQYVSSSYLAWYQQKPGQAPRLLIYYASNRATGIPDRFSGSGSGTDFTLTISRLEPEDFAVYYCQQYHSGITFGGGTKVEIK
B8: 29872 (antibody, V domains shown)
VH: QVQLVQSGAEVKKPGASVKVSCKASGYTFKSYEMHWVRQAPGQGLEWMGRINPSVGSTWYAQKFQGRVTMTRDTSTSTVYMELSSLRSEDTAVYYCARGKREGGTEYLRHWGQGTLVTVSS
VL: EIVLTQSPGTLSLSPGERATLSCRASQSVSSSYLAWYQQKPGQAPRLLIYGASSRATGIPDRFSGSGSGTDFTLTISRLEPEDFAVYYCQQYHSYITFGGGTKVEIK
B9: 31431 (antibody, V domains shown)
VH: QVQLVQSGAEVKKPGASVKVSCKASGYTFTSYQMHWVRQAPGQGLEWMGRINPSGGSTWYAQKFQGRVTMTRDTSTSTVYMELSSLRSEDTAVYYCARGKREGGTEYLRHWGQGTLVTVSS
VL: EIVLTQSPGTLSLSPGERATLSCRASQSVASSYLAWYQQKPGQAPRLLIYGASNRHTGIPDRFSGSGSGTDFTLTISRLEPEDFAVYYCQQYHGGITFGGGTKVEIK
B10: 31891 (antibody, V domains shown)
VH: QVQLVQSGAEVKKPGASVKVSCKASGYIFKSYEMHWVRQAPGQGLEWMGRINPSVGSTWYAQKFQGRVTMTRDTSTSTVYMELSSLRSEDTAVYYCARGKREGGTEYLRVWGQGTLVTVSS
VL: EIVLTQSPGTLSLSPGERATLSCRASQSVSSSYLAWYQQKPGQAPRLLIYYASSRAYGIPDRFSGSGSGTDFTLTISRLEPEDFAVYYCQQYHNAITFGGGTKVEIKR
B11: 31430 (antibody, V domains shown)
VH: QVQLVQSGAEVKKPGASVKVSCKASGYTFKSYEMHWVRQAPGQGLEWMGRINPSGGSTWYAQKFQGRVTMTRDTSTSTVYMELSSLRSEDTAVYYCARGKREGGTEYLRHWGQGTLVTVSS
VL: EIVLTQSPGTLSLSPGERATLSCEASQSVSYSYLAWYQQKPGQAPRLLIYGASSRANGIPDRFSGSGSGTDFTLTISRLEPEDFAVYYCQQYHSALTFGGGTKVEIKR
B12: 27549 (antibody, V domains shown)
VH: QVQLVESGGGVVQPGRSLRLSCAASGFTFSSYGMNWVRQAPGKGLEWVAVIWYDGSNKYYADSVKGRFTISRDNSKNTLYLQMNSLRAEDTAVYYCARDLGGYSYGEPYYYYYGMDVWGQGTTVTVSS
VL: EIVLTQSPGTLSLSPGERATLSCRASQSVSSDYLAWYQQKPGQAPRLLIYGASSRATGIPDRFSGSGSGTDFTLTISRLEPEDFAVYYCQQAHSSPYTFGGGTKVEIKR
B13: 27536 (antibody, V domains shown)
VH: QVQLVQSGAEVKKPGSSVKVSCKASGGTFSNYAISWVRQAPGQGLEWMGGIIPIFGTANYAQKFQGRVTITADESTSTAYMELSSLRSEDTAVYYCARDTLYSSGAYYGYNVWGQGTMVTVSS
VL: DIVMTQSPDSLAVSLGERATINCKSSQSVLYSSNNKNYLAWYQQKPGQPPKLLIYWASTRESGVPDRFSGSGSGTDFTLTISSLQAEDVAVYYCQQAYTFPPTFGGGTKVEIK

How the values were obtained:
[1] = biological target: T1, rhCD39-ECD-His (R&D Systems); assay: BLI (Octet), IgG on anti-human Fc sensor, rhCD39-ECD-His 10-300 nM, 1:1 fit
Protocol: The kinetic data was globally fit with a simple 1:1 Langmuir binding model to yield on-rate (kon) and off-rate (koff) values. The equilibrium dissociation constants (KD) were calculated from the kon and koff values.
Binding kinetics were measured using the Octet Red96 system (ForteBio) at 25° C. in running buffer (1× Pall ForteBio Kinetics Buffer diluted into PBS or Tris pH 7.4). […] After a short baseline step in running buffer, the sensors were exposed to varying concentrations (10-300 nM) of rhCD39-ECD-His (R&D Systems) for the association step. Dissociation of the complex was monitored upon exposure of the sensors to running buffer once again. Data was processed using ForteBio Octet software with baseline subtraction, global fit and 1:1 binding model to obtain association and dissociation rates. KD was calculated from the ratio of kd to kₐ.

human CD39 on cells = biological target: T2, human CD39 on cells; assay: flow cytometry, 100 nM IgG, hCD39-CHO cells; MFI ratio to parental CHO
Protocol: (§1) 100 nanomolar IgGs (each antibody is indicated as a unique clone number in the FIG.) were incubated at […] 30 minutes on ice in phosphate buffered saline (PBS) with parental CHO cells or CHO cells engineered to express either human or cynomolgus macaque (Macaca fascicularis) CD39 (CHO CD39 cells). Cells were then washed with ice cold PBS and incubated with a fluorescently labeled goat-anti-human IgG for 20 minutes on ice. Cells were washed and resuspended in ice cold PBS prior to analysis by flow cytrometry.

[2] = biological target: T3, cynomolgus macaque (Macaca …); assay: flow cytometry, 100 nM IgG, cCD39-CHO cells; MFI ratio to parental CHO
Protocol: as §1

Binder	Kd [1]	koff [1]	kon [1]	Cell Binding (FOB) (human CD39 on cells)	Cell Binding (FOB) [2]
B1	173 nM	0.047 s⁻¹	272000 M⁻¹ s⁻¹	267 FOB	260 FOB
B2				301 FOB	738 FOB
B3				1950 FOB	2670 FOB
B4				1240 FOB	3570 FOB
B5				1080 FOB	3180 FOB
B6				1170 FOB	3360 FOB
B7				1290 FOB	3800 FOB
B8				1450 FOB	4190 FOB
B9				1240 FOB	3530 FOB
B10				1030 FOB	4650 FOB
B11				1220 FOB	3570 FOB
B12				822 FOB	566 FOB
B13	114 nM	0.00751 s⁻¹	65900 M⁻¹ s⁻¹	89 FOB	113 FOB
